We go through four molecules from publication PMC9482650, “Quantitative fragmentomics allow affinity mapping of interactomes” (Nature Communications, 2022).

Targets include GIPC2, Q8TF65; GRID2IP_2, A4D2P6; DLG2_2, Q15700; MAST1, Q9Y2H9; MAGI1_2, Q96QZ7; HTRA1, Q92743; LNX1_1, Q8TBB1.
Holding throughout (experiment): holdup assay
What all share (parameters): key: below the threshold = too weak to quantify, mostly under pKd 3.1 to 4

The next assay has as its target APBA3_1, O96018. As to conditions: plain residues with an end cap or a label only.
The target of the next assay is IL16_1, Q14005. As to conditions: plain residues with an end cap or a label only (N-terminal biotin on a linker: ahx).
Sequence of IL16_1, Q14005 (Q14005 210-306): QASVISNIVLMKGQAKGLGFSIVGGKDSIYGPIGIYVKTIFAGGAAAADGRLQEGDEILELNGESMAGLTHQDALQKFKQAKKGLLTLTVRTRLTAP
The target in a further assay is GRASP, Q7Z6J2. The following applies: plain residues with an end cap or a label only (N-terminal biotin on a linker: ahx).
Sequence of GRASP, Q7Z6J2 (Q7Z6J2 96-193): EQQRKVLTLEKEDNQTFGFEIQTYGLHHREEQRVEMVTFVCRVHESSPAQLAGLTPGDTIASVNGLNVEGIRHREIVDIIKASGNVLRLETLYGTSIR
In the next assay the target is MAGI2_5, Q86UL8. The following applies: plain residues with an end cap or a label only (N-terminal biotin on a linker: ahx).
Sequence of MAGI2_5, Q86UL8 (Q86UL8 915-1017): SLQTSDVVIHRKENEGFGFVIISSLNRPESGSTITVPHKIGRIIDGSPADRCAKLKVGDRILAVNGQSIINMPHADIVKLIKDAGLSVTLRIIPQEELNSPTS
For another assay, the target named is NOS1, P29475. As to conditions: plain residues with an end cap or a label only (N-terminal biotin on a linker: ahx).
Sequence of NOS1, P29475 (P29475 9-101): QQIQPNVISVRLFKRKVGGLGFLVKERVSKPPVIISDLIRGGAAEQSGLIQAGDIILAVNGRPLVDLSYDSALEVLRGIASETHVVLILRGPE
Another assay addresses T1, SYNJ2BP, P57105.
T1 sequence (P57105 8-110, limits assumed, looked up): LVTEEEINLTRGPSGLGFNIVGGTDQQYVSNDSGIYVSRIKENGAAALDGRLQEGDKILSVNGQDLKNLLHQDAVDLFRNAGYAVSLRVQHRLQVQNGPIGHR

Another assay concerns the target T2, APBA1_2, Q02410.
T2 sequence (Q02410 742-832, limits assumed, looked up): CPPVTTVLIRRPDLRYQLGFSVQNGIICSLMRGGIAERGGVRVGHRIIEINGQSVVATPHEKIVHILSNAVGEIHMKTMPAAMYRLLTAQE
The following applies: plain residues with an end cap or a label only (N-terminal biotin on a linker: ahx).

The target in the next assay is T3, ARHGEF11, O15085.
T3 sequence (O15085 42-136, limits assumed, looked up): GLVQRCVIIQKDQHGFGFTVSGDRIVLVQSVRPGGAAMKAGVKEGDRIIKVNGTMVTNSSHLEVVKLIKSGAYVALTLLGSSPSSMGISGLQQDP
The following applies: plain residues with an end cap or a label only (N-terminal biotin on a linker: ahx).

The next assay addresses MAGI2_6, Q86UL8. As to conditions: plain residues with an end cap or a label only (N-terminal biotin on a linker: ahx).
The target of another assay is Inadl_10, Q8NI35. As to conditions: plain residues with an end cap or a label only (N-terminal biotin on a linker: ahx).
Sequence of Inadl_10, Q8NI35 (Q8NI35 1673-1763): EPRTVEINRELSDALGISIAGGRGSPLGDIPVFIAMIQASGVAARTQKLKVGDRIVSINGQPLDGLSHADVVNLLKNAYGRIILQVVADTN
The target of a further assay is DLG1_2, Q12959. The following applies: plain residues with an end cap or a label only (N-terminal biotin on a linker: ahx).
Sequence of DLG1_2, Q12959 (Q12959 314-412): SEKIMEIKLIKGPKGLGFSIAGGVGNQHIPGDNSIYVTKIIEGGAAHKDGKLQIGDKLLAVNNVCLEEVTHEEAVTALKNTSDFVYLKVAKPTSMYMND
For another assay, the target named is ARHGEF12, Q9NZN5-2. As to conditions: plain residues with an end cap or a label only (N-terminal biotin on a linker: ahx).
Sequence of ARHGEF12, Q9NZN5-2 (Q9NZN5 other isoform, or with tags, fused parts or gaps): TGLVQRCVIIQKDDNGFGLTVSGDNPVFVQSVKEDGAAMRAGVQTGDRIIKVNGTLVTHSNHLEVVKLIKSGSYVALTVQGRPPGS
The next assay concerns the target T4, TIAM2, Q8IVF5.
T4 sequence (Q8IVF5 885-986, limits assumed, looked up): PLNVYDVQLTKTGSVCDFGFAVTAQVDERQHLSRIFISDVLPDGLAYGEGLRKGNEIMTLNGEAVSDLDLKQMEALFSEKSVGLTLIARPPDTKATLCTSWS

For a further assay, the target named is T5, LIN7B, Q9HAP6.
T5 sequence (Q9HAP6 88-185, limits assumed, looked up): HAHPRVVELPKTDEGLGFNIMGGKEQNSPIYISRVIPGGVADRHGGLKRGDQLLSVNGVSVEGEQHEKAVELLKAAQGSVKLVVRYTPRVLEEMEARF
As to conditions: plain residues with an end cap or a label only (N-terminal biotin on a linker: ado-ado).

Another assay concerns the target T6, DFNB31_3, Q9P202.
T6 sequence (Q9P202 811-907, limits assumed, looked up): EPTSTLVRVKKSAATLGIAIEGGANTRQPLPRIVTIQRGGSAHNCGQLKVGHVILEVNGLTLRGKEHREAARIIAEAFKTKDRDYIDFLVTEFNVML
As to conditions: plain residues with an end cap or a label only (N-terminal biotin on a linker: ado-ado).

The target in a further assay is DLG2_3, Q15700. As to conditions: plain residues with an end cap or a label only (N-terminal biotin on a linker: ado-ado).
The next assay concerns the target PTPN3, P26045. The following applies: plain residues with an end cap or a label only (N-terminal biotin on a linker: ado-ado).
The target of the next assay is NHERF4_1, Q86UT5-2. The following applies: plain residues with an end cap or a label only (N-terminal biotin on a linker: ado-ado).
Sequence of NHERF4_1, Q86UT5-2 (Q86UT5 other isoform, or with tags, fused parts or gaps): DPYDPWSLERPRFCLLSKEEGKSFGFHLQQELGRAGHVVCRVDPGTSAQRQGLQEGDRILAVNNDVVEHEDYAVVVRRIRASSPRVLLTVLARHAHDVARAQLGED
For another assay, the target named is T7, HTRA3, P83110.
T7 sequence (P83110 354-453, limits assumed, looked up): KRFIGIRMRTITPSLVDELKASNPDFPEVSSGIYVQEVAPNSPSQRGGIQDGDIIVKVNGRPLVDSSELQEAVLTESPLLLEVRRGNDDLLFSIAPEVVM
The following applies: plain residues with an end cap or a label only (N-terminal biotin on a linker: ado-ado).

Another assay deals with T8, PDZD7_3, Q9H5P4.
T8 sequence (Q9H5P4 857-944, limits assumed, looked up): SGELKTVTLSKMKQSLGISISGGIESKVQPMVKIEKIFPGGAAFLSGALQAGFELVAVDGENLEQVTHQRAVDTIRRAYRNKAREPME
As to conditions: plain residues with an end cap or a label only (N-terminal biotin on a linker: ado-ado).

Another assay deals with T9, MPP6, Q9NZW5.
T9 sequence (Q9NZW5 125-219, limits assumed, looked up): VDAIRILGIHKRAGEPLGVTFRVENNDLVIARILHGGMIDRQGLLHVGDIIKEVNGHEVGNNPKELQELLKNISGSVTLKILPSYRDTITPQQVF
As to conditions: plain residues with an end cap or a label only (N-terminal biotin on a linker: ado-ado).

For the next assay, the target named is T10, LIN7C, Q9NUP9.
T10 sequence (Q9NUP9 88-185, limits assumed, looked up): T5 sequence (Q9HAP6 88-185, limits assumed, looked up) with A2S, D13E, V35I, V40I, Q65H, S79K, R89K, A96S
As to conditions: plain residues with an end cap or a label only (N-terminal biotin on a linker: ado-ado).

The next assay deals with T11, GRIP1_5, Q9Y3R0.
T11 sequence (Q9Y3R0 568-668, limits assumed, looked up): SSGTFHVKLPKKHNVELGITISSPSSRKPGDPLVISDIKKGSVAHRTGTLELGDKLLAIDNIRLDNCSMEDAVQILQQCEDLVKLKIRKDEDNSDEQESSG
The following applies: plain residues with an end cap or a label only (N-terminal biotin on a linker: ado-ado).

The target in another assay is FRMPD2_1, Q68DX3. As to conditions: plain residues with an end cap or a label only (N-terminal biotin on a linker: ado-ado).
Sequence of FRMPD2_1, Q68DX3 (Q68DX3 770-861): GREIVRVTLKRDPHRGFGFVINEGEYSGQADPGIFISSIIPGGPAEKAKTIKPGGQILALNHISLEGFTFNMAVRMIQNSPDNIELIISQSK
In a further assay the target is TJP1_3, Q07157. As to conditions: plain residues with an end cap or a label only (N-terminal biotin on a linker: ado-ado).
Sequence of TJP1_3, Q07157 (Q07157 416-512): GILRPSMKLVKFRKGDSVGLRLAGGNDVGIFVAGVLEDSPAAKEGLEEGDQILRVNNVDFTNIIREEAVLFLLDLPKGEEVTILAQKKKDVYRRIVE
The target of the next assay is T12, ARHGAP21, Q5T5U3.
T12 sequence (Q5T5U3 45-169, limits assumed, looked up): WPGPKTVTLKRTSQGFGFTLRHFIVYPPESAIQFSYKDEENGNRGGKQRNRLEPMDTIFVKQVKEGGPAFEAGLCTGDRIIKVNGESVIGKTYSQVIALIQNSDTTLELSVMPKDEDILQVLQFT
As to conditions: plain residues with an end cap or a label only (N-terminal biotin on a linker: ado-ado).

The next assay addresses T13, MPDZ_10, O75970.
T13 sequence (O75970 1624-1722, limits assumed, looked up): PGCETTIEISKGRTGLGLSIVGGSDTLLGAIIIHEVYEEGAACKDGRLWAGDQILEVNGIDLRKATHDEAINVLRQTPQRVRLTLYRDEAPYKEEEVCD
As to conditions: plain residues with an end cap or a label only (N-terminal biotin on a linker: ado-ado).

In a further assay the target is DLG1_3, Q12959. The following applies: plain residues with an end cap or a label only (N-terminal biotin on a linker: ado-ado).
Sequence of DLG1_3, Q12959 (Q12959 457-571): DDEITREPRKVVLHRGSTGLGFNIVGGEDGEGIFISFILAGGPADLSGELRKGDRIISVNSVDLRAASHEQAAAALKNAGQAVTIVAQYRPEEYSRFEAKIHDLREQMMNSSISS
The next assay concerns the target T14, MPDZ_12, O75970.
T14 sequence (O75970 1857-1958, limits assumed, looked up): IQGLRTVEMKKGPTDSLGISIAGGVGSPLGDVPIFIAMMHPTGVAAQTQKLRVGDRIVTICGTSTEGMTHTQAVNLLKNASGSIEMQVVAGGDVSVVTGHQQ
The following applies: plain residues with an end cap or a label only (N-terminal biotin on a linker: ado-ado).

For another assay, the target named is IL16_3, Q14005. As to conditions: plain residues with an end cap or a label only (N-terminal biotin on a linker: ado-ado).
Sequence of IL16_3, Q14005 (Q14005 1107-1207): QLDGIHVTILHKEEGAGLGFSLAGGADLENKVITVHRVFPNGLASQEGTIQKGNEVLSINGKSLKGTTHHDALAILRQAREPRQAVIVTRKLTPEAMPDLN
For another assay, the target named is TJP2_1, Q9UDY2. As to conditions: plain residues with an end cap or a label only (N-terminal biotin on a linker: ado-ado).
Sequence of TJP2_1, Q9UDY2 (Q9UDY2 24-128): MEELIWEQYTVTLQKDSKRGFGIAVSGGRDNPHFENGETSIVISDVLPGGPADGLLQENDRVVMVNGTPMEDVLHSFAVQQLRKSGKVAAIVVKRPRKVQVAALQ
For the next assay, the target named is DLG4_2, P78352. As to conditions: plain residues with an end cap or a label only (N-terminal biotin on a linker: ado-ado).
Sequence of DLG4_2, P78352 (P78352 155-259): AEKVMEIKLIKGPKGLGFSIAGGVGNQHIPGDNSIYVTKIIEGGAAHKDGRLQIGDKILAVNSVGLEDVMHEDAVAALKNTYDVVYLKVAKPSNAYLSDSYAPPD
The target of another assay is T15, DLG3_1, Q92796.
T15 sequence (Q92796 125-227, limits assumed, looked up): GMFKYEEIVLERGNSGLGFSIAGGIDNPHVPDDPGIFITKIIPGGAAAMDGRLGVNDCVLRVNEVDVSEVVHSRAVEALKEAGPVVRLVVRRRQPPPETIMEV
As to conditions: plain residues with an end cap or a label only (N-terminal biotin on a linker: ado-ado).

In a further assay the target is T16, SHANK1, Q9Y566.
T16 sequence (Q9Y566 658-767, limits assumed, looked up): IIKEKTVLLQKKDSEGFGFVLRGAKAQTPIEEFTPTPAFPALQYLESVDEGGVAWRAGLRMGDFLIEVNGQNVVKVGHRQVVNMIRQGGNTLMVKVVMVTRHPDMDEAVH
The following applies: plain residues with an end cap or a label only (N-terminal biotin on a linker: ado-ado).

For a further assay, the target named is GORASP2, Q9H8Y8. As to conditions: plain residues with an end cap or a label only (N-terminal biotin on a linker: ado-ado).
Setting [1] is: plain residues with an end cap or a label only (N-terminal biotin on a linker: ahx).
The mark [2] stands for this setting: plain residues with an end cap or a label only (N-terminal biotin on a linker: ado-ado).

One may read the pKd as the negative decadic logarithm of the Kd, by convention in mol/L.

Numbering of substitutions follows the chain as printed.

Sequence of HTRA1, Q92743 (Q92743 360-477): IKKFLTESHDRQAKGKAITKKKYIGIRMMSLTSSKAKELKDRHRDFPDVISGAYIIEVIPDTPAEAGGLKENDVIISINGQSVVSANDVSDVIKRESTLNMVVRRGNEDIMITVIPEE
Sequence of MAST1, Q9Y2H9 (Q9Y2H9 962-1065): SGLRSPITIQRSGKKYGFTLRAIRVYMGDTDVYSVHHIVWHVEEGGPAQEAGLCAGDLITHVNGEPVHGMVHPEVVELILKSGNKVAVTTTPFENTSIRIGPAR
Sequence of GIPC2, Q8TF65 (Q8TF65 112-203): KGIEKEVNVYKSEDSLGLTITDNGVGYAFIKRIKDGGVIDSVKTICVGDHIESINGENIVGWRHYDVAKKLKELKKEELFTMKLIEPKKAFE
Sequence of GRID2IP_2, A4D2P6 (A4D2P6 272-370): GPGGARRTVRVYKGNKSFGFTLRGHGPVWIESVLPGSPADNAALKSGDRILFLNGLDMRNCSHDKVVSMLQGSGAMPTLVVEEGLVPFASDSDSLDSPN
Sequence of MAGI1_2, Q96QZ7 (Q96QZ7 456-580): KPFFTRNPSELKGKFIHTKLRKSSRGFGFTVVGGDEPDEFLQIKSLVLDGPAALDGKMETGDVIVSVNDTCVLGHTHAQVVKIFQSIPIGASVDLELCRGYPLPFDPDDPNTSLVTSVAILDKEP
Sequence of LNX1_1, Q8TBB1 (Q8TBB1 261-371): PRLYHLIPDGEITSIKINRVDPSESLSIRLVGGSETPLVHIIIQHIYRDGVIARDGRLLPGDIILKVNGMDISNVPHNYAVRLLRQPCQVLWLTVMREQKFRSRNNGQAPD
Sequence of APBA3_1, O96018 (O96018 other isoform, or with tags, fused parts or gaps): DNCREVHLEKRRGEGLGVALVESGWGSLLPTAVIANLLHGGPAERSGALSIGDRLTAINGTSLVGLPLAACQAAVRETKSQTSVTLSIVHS
Sequence of PTPN3, P26045 (P26045 505-587): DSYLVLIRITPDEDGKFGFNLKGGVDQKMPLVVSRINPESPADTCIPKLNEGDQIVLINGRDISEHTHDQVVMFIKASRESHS
Sequence of MAGI2_6, Q86UL8 (Q86UL8 1141-1229): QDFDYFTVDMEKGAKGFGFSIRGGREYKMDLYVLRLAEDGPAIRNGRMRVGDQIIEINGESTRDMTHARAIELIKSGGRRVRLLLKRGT

With RRSQSPSANC [a stretch of P69709, P69709], in the assay with APBA3_1, O96018, the pKd result was “below the threshold”.
Turning to LCKSHAFSHV [PDLIM7, Q9NR12], the pKd in the assay with GIPC2, Q8TF65 (setting [1]) amounted to 3.67; in the assay with IL16_1, Q14005, 3.51; in the assay with GRASP, Q7Z6J2 it was 3.65; with MAGI2_5, Q86UL8, 3.86; in the assay with NOS1, P29475, 3.48; with GRID2IP_2, A4D2P6 (setting [1]), 3.62. Moreover, the pKd in the assay with DLG2_2, Q15700 (setting [1]) was found to be 3.56; in the assay with MAST1, Q9Y2H9 (setting [1]) it was 3.75; with SYNJ2BP, P57105 (setting [1]), 3.7; with APBA1_2, Q02410, 3.83; in the assay with ARHGEF11, O15085, 3.48; with MAGI2_6, Q86UL8 it was 3.61. Moreover, the pKd stood at 3.9 in the assay with MAGI1_2, Q96QZ7 (setting [1]); 3.68 with HTRA1, Q92743 (setting [1]); 3.52 in the assay with Inadl_10, Q8NI35; 3.51 with LNX1_1, Q8TBB1 (setting [1]); 3.48 with DLG1_2, Q12959; 3.55 with ARHGEF12, Q9NZN5-2. The pKd with TIAM2, Q8IVF5 (setting [1]) was determined as 3.48.
With KSTTRSSSSC [NDE1, Q9NXR1], the pKd with LIN7B, Q9HAP6 stood at 3.64; in the assay with GIPC2, Q8TF65 (setting [2]), 3.64; with DFNB31_3, Q9P202, 3.75; with DLG2_3, Q15700 it was 3.58; in the assay with GRID2IP_2, A4D2P6 (setting [2]) it was 3.59; with MAST1, Q9Y2H9 (setting [2]) it was 3.61. In addition, the pKd was 3.76 with SYNJ2BP, P57105 (setting [2]); 3.52 with PTPN3, P26045; 3.85 with NHERF4_1, Q86UT5-2; 3.74 in the assay with HTRA3, P83110; 3.73 in the assay with PDZD7_3, Q9H5P4; 3.71 with MAGI1_2, Q96QZ7 (setting [2]). Also, the pKd turned out to be 3.6 in the assay with MPP6, Q9NZW5; 3.88 with LIN7C, Q9NUP9; 3.85 with TIAM2, Q8IVF5 (setting [2]).
Regarding EYRKDNKVAA [LSM14A, Q8ND56], the pKd was determined as 3.6 with GRIP1_5, Q9Y3R0; 3.68 with FRMPD2_1, Q68DX3; 3.83 with LIN7B, Q9HAP6; 3.53 in the assay with TJP1_3, Q07157; 3.67 in the assay with ARHGAP21, Q5T5U3; 3.68 in the assay with MPDZ_10, O75970. Besides, the negative-log Kd (pKd) is 3.64 with DLG1_3, Q12959; 3.88 with DLG2_3, Q15700; 3.68 in the assay with MPDZ_12, O75970; 3.51 in the assay with IL16_3, Q14005; 3.54 in the assay with DLG2_2, Q15700 (setting [2]); 3.61 with NHERF4_1, Q86UT5-2. Further, the pKd with TJP2_1, Q9UDY2 stood at 3.57; with DLG4_2, P78352, 3.71; with HTRA1, Q92743 (setting [2]), 3.67; with LNX1_1, Q8TBB1 (setting [2]), 3.82; with DLG3_1, Q92796, 3.55; with SHANK1, Q9Y566 it was 3.51. The molecule also displayed a pKd with GORASP2, Q9H8Y8 of 3.52.
